Positions count from the first letter of the chain named.
Columns and labels:
Test in all cases: FACS, mutant-EGFP on HEK293F cells
[1] = molecular target: T1, KW27-1 (human CD39 mutant, C-terminal EGFP) (human, UniProt P49961 1-510)
T1 construct: expressed on HEK293F cells; not shown: C-terminal EGFP fusion (vector pCMV3-GFPSpark)
T1 chain: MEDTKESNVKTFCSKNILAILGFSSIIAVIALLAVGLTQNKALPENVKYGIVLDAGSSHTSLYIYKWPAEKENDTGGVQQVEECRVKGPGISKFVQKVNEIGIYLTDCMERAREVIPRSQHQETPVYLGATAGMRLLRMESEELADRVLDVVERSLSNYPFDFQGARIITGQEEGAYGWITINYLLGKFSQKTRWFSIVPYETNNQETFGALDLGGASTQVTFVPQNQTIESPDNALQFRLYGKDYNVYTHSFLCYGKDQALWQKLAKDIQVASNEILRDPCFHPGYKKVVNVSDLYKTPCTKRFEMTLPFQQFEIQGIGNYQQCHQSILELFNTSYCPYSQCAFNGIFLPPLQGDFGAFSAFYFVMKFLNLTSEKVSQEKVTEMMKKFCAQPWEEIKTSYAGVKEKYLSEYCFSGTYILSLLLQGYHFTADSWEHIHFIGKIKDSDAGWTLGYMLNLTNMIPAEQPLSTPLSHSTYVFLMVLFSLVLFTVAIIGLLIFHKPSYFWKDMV
Protocol: (§1) Briefly, the human CD39 mutants were generated by gene synthesis and then cloned into an expression vector pCMV3-GFPSpark. The vectors containing the validated mutated sequences were prepared and transfected into HEK293F cells. Three days post transfection, the cells were collected to testing EGFP for transgene expression. A range of dosages of antibodies (start from 100 nM, 3-folds dilution, 11 points) were tested on the 20 generated mutants and stained by AlexFluor647 labelled anti-hIgG by FACS. Antibody binding was descripted as relative binding which is derived from AlexFluor647 intensity divided by GFP intensity.

[2] = molecular target: T2, KW27-4 (human CD39 mutant, C-terminal EGFP) (human, UniProt P49961 1-510)
T2 construct: expressed on HEK293F cells; not shown: C-terminal EGFP fusion (vector pCMV3-GFPSpark)
T2 chain: T1 chain with G77V, Q79H, R118A, S119A, Q120K, Q122H, E123A, K444Q, D445G
Protocol: as §1

[3] = molecular target: T3, KW27-11 (human CD39 mutant, C-terminal EGFP) (human, UniProt P49961 1-510)
T3 construct: expressed on HEK293F cells; 'D3565' as printed is read as D356S; not shown: C-terminal EGFP fusion (vector pCMV3-GFPSpark)
T3 chain: T1 chain with G77V, Q79H, Q354A, D356S, E435A, H436Q, K444Q, D445G
Protocol: as §1

[4] = molecular target: T4, KW27-15 (human CD39 mutant, C-terminal EGFP) (human, UniProt P49961 1-510)
T4 construct: expressed on HEK293F cells; not shown: C-terminal EGFP fusion (vector pCMV3-GFPSpark)
T4 chain: T1 chain with G77V, Q79H, A402P, G403A, K405A, E406A, K444Q, D445G
Protocol: as §1

Measured: binding result

B1: Antibody T895 (antibody, V domains shown)
VH: EVQLQQSGPELVKPGASVKMSCKASGYTFTDYNMHWVKQSHGRTLEWIGYIVPLNGGSTFNQKFKGRATLTVNTSSRTAYMELRSLTSEDSAAYYCARGGTRFAYWGQGTLVTVSA
VL: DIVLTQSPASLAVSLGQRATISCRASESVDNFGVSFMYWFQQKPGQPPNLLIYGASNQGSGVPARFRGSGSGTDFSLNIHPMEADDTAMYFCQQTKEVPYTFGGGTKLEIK
notes: also called 31895
binds: all assays above

B2: c34 (antibody, V domains shown)
VH: EIQVQQSGPELVKPGASVKVSCKASGYSFTDYNMYWVKQSHGKSLEWIGFIDPYNGYTSYNQKFKGKATLTIDKSSSTAFMHLNSLTSEDSAVYYCAIYGYDDAYYFDYWGQGTTLTVSS
VL: QIVLTQSPAIMSASPGEKVTITCSATSSVSYMHWFRQKPGTSPKLWIYSTSNLASGVPARFSGSGSGTSYSLTISRMAAEDAATYYCQQRITYPFTFGSGTKLEIT
notes: its making is not described; also called chimeric antibody c34
binds: all assays above

B3: Antibody 9-8B (antibody, V domains shown)
VH: QIQLVQSGPELKKPGETVKISCKASGYTFTHYGMNWVKQAPGKGLKWMGWINTYTGELTYADDFKGRFAFSLETSASTAYLQINNLKNEDTATYFCARRAYYRYDYVMDYWGQGTSVTVSS
VL: DIVMTQSQKFMSTSVGDRVSVTCKASHNVGTNVAWYQQKPGQSPKALIYSASYRYSGVPGRFTGSGSGTDFTLTISNVQSEDLAEYFCHQYNNYPYTFGGGTKLEIK
binds: all assays above

B4: c35 (antibody, V domains shown)
VH: EVRLQQSGAELVKPGASVKLSCTASGFNIEDTYVHWMKQRPEQGLEWIGRIDPAIDNSKYDPKFQGKATITAVSSSNTAYLQLSSLTSEDTAVYYCALYDGYNVYAMDYWGQGTSVTVSS
VL: DIVMTQAAFSNPVTLGTSASISCRSSKNLLHSNGITYLYWYLQRPGQSPQLLIYRASTLASGVPNRFSGSESGTDFTLRISRVEAEDVGVYYCAQLLELPHTFGGGTKLEIK
notes: its making is not described; also called chimeric antibody c35
binds: all assays above

B5: hu23.H5L5 (antibody, V domains shown)
VH: QVQLVQSGAEVKKPGASVKVSCKASGYNLKDTFLHWVRQAPGQGLEWMGRIDPANGNIKYDPKFQGRVTITADTSANTAYMELISLRSEDTAVYYCANSPYYYGSGYRIFDVWGQGTTVTVSS
VL: QIVLTQSPATLSLSPGERATLSCSAFSSVNYMHWYQQKPGQAPRLLIYTTSNLASGIPTRFSGSGSGTSYTLTISSLEPEDFAVYYCQQRSTYPFTFGQGTKLEIK
notes: humanized c23
binds: all assays above
